One assay concerns the target T1, NgR3 (Homo sapiens, UniProt Q86UN2).
T1 sequence (Q86UN2 with tags, fused parts or gaps V54E/V59I/G67T/L68F/P71Q/Y90F/H92A/S94N/V144I/P190Q/T192I/R221H/S234T/E239D/G245V/P256A/Q271R/V283A/S284T/G286E/H289Q/A298V/A308V/T321S/S331P/P332S/P335A/T336S/S338D/P345H/R346P/H349S/INS350SGYK/P352A/N358S/P359H/A368V/G369S/A370S/Q373E/A374L/P375T/P378Q): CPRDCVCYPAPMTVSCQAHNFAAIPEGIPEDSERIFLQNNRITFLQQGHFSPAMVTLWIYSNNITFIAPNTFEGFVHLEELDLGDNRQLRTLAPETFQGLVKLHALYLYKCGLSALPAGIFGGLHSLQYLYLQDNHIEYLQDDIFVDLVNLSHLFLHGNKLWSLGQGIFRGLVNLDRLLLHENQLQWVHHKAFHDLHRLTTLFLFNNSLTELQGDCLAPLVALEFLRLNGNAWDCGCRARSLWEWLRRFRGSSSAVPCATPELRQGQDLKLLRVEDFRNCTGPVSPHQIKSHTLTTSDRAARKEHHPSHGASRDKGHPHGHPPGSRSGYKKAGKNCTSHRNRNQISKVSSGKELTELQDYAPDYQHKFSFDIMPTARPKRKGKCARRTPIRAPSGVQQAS
The experiment in a line: Antibody binding specificity: NgR3.

The target in assay [1] is T2, fragments of rat NgR1 (sNgR310) (Rattus norvegicus, UniProt Q99M75, A303T/C287S/E284G).
T2 construct: intact rat NgR1 (aa 27-aa 310); made in house
T2 sequence (Q99M75 241-310 E284G/C287S/A303T): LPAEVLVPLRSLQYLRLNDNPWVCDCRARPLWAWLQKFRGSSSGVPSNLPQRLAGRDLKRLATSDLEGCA
The experiment in a line: Western blot of acid/CNBr fragments of sNgR310 probed with 7E11. In kind it is binding. The protocol: (§1) A recombinant fragment of the rat NgR1 that contains all 8 LRR domains and the N- and C-terminal caps (sNgR310) was treated with either acid or cyanogen bromide (CNBr) and separated the fragments by gel electrophoresis. Untreated sNgR310 migrates with an apparent molecular weight of 42 kDa. Acid treatment of sNgR310 produced two major cleavage products of 15 kDa (aa 27-aa 122) and 30 kDa (aa 123-aa 310). CNBr treatment generated three fragments, a 33/35 kDa doublet (aa 27-aa 229), which may represent fragments with heterogeneous glycosylation, a 10 kDa product (aa 241-aa 310), and an 11-amino-acid fragment (as 230-aa 240), which is not retained on the gel. […] Both the 15 kDa acid fragment and the 35 kDa CNBr fragment contained the sequence […] (SEQ ID NO: 1), consistent with 7E11 binding to a single epitope on NgR1.
In general terms: Immunoblotting shows a protein as a band on a membrane.

The target in assay [2] is T3, fragments of rat NgR1 (sNgR310) (Rattus norvegicus, UniProt Q99M75, A303T/C287S/E284G).
T3 construct: intact rat NgR1 (aa 27-aa 310); made in house
T3 sequence (Q99M75 123-310 E284G/C287S/A303T): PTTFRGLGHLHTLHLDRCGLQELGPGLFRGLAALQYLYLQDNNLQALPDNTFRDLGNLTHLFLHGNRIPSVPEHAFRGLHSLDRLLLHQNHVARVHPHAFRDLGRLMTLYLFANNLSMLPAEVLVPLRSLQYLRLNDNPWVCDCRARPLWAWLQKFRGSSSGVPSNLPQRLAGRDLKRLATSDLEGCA
The assay is described as above. In kind it is binding. The protocol: as §1
This is another data set of the same source.

Assay [3] deals with T4, fragments of rat NgR1 (sNgR310) (Rattus norvegicus, UniProt Q99M75, C43R/T53A).
T4 construct: intact rat NgR1 (aa 27-aa 310); made in house
T4 sequence (Q99M75 27-122 C43R/T53A): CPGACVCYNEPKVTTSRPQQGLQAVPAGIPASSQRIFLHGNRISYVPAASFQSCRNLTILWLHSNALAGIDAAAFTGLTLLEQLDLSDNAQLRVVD
The description is as above. In kind it is binding. The protocol:
as §1

Assay [4] concerns the target T5, fragments of rat NgR1 (sNgR310) (Rattus norvegicus, UniProt Q99M75, C43R/T53A).
T5 construct: intact rat NgR1 (aa 27-aa 310); made in house
T5 sequence (Q99M75 27-229 C43R/T53A): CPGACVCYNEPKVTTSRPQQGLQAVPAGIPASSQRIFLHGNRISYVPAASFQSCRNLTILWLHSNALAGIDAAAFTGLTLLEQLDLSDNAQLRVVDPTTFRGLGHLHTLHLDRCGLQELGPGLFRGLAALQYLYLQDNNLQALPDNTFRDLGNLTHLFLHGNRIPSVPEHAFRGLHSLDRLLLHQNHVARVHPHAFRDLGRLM
Described as above. In kind it is binding. The protocol: as §1
The source holds these as a separate data set.

Assay [5] concerns the target T6, fragments of rat NgR1 (sNgR310) (Rattus norvegicus, UniProt Q99M75, A303T/C287S/C43R/E284G/T53A).
T6 construct: intact rat NgR1 (aa 27-aa 310); made in house
T6 sequence (Q99M75 27-310 C43R/T53A/E284G/C287S/A303T): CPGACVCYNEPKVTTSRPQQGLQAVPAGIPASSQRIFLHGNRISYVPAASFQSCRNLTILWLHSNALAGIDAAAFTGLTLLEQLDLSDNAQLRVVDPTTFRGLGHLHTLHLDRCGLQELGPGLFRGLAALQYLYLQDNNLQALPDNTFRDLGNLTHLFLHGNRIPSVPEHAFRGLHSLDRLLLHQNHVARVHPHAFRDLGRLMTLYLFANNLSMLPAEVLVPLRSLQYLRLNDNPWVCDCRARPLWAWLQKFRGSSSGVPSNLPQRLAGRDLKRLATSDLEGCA
The description is as above. In kind it is binding. The protocol: as §1

The target of assay [6] is T7, cells expressing human Nogo receptor-1 (Homo sapiens, UniProt Q9BZR6).
T7 construct: expressed in transfected cells; host or cells: COS-7 or 293 cells
T7 sequence (Q9BZR6 27-447): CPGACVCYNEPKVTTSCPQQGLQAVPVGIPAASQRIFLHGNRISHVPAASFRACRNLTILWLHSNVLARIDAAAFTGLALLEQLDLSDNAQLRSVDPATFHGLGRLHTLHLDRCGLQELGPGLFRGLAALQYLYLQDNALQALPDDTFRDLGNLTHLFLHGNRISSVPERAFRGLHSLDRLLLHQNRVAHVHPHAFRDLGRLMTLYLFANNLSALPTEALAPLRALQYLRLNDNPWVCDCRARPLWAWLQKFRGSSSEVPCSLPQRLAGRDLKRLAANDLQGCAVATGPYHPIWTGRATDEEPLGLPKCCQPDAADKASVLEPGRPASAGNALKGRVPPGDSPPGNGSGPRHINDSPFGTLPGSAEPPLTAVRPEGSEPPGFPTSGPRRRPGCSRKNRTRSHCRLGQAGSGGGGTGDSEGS
As to the kind of experiment: Immunohistochemistry on fixed and live COS-7 or 293 cells expressing human Nogo receptor-1. In kind it is cell-based. Particulars: immunohistochemical staining. The protocol:
To further characterize the binding properties of anti-Nogo receptor-1 mAbs produced as described in Example 1, we compared binding to both fixed and live COS-7 or 293 cells expressing rat or human Nogo receptor-1.
Nogo receptor-1 transfected and non-transfected cells were plated in 8-well Lab-Tek™ culture slides, fixed with 4% paraformaldehyde for 15 minutes, blocked with 10% normal goat serum, 0.1% Triton X-100 in PBS for 1 hour. Mab 7E11 was added at 15 μg/ml and 1.5 μg/ml in blocking solution and incubated for 2 hours at room temperature; Alexa®-conjugated secondary antibody anti-mouse (Molecular Probes) was incubated at a 1:300 dilution in blocking solution for 1 hour; DAPI was added at 5 μg/ml to the secondary antibody to label all nuclei.
Transfected and non-transfected cells were plated in 8 well Lab-Tek™ culture slides, blocked with FACS buffer (containing 4% donor horse serum) for 30 minutes at 4° C., incubated with 7E11 at 15 μg/ml and 1.5 μg/ml in FACS buffer for 1 hour at 4° C., rinsed and incubated with secondary antibody anti-mouse-Alexa® (1:300 in FACS buffer) for 30 minutes at 4° C.

We go through one molecule from patent US9228015B2, “Nogo receptor antagonists and methods of increasing neurite outgrowth” (Biogen Idec MA Inc., priority 2006, dated 2016).

B1: 7E11: murine monoclonal anti-Nogo receptor-1 antibody, immunogen rat Nogo receptor-1 residues 110-125, IgG1 kappa, ATCC PTA-4587 (antibody, V domains shown)
VH: VQLQESGAELVMPGASVKMSCKASGYTFTDYWMHWVKQRPGQGLEWIGAIDPSDSYSSYNQNFKGKATLTVDGSSSTAYMQLSSLTSEDSAVYYCARRITEAGAWFAYWGQGTTVT
VL: MKLPVRLLVLMFWIPASSSDVVMTQTPLSLPVSLGDQASISCRSSQSLVHSNGNTYLHWYLQKPGQSPKLLIYKVSNRFSGVPDRFSGSGSGTDFTLKISRVDAEDLGVYFCSQSTHVPFTFGGGTKLEIKRADAAPTVSISHH
modifications: 7E11 heavy chain; 7E11 light chain
notes: murine monoclonal anti-Nogo receptor-1 antibody, immunogen rat Nogo receptor-1 residues 110-125, IgG1 kappa, ATCC PTA-4587
Turning to B1, in the assay with NgR3, the “binding to NgR3” value was “does not bind well”. In addition, in assay [1], the “binding to the 10 kDa CNBr fragment (aa 241-aa 310)” value is reported as “did not bind”. In addition, the “binding to the 30 kDa acid fragment (aa 123-aa 310)” value in assay [2] is “did not bind”. In assay [3], the “binding to the 15 kDa acid fragment (aa 27-aa 122)” value is on record as “bound”. Further, the “binding to the 35 kDa CNBr fragment (aa 27-aa 229)” value in assay [4] was “bound”. The “binding to intact rat NgR1 (aa 27-aa 310)” value in assay [5] is listed as “bound”. In assay [6], the “binding to fixed and live cells expressing human Nogo receptor-1” value was “bound”.
